Experimental data taken from patent publication US20220387586A1 (Hoffmann-La Roche, published 2022).
Where a chain is given by its changes, count along the chain named. One block for each binder: values may come before it.

Assays:
[1] = target: T1, human Fc tagged human Lag3 extra cellular domain (human, UniProt P18627 29-450, biotinylated in the epitope binning, the SA CAP SPR and the FACS competition assay); assay: SPR (Biacore T200), huLag3-Fc captured, antibody Fab fragment as analyte, 25 °C, 1:1 Langmuir fit; monovalent (first value line); bivalent line is tbd
T1 construct: In-house fusion; also called huLag3-Fc; biotinylated, huFc-tagged huLag3; not shown: human Fc tag
T1 sequence: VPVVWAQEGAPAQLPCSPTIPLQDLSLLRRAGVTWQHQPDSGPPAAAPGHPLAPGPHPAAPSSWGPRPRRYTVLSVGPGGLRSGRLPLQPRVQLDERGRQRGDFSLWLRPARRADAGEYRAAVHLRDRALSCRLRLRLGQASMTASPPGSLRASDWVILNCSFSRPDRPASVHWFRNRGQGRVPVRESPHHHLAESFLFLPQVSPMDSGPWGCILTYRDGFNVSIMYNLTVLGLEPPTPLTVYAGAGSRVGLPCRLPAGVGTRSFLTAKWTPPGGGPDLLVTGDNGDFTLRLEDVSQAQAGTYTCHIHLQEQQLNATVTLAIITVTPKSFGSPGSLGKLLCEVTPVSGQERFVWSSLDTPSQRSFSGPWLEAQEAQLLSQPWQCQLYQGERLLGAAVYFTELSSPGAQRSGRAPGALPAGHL
Protocol: (§1) Therefore two flow cells of a C1 biosensor chip were prepared in a Biacore T200 by immobilizing neutravidin, diluted to 25 μg/ml in acetate buffer pH 4.5, onto it using the ‘immobilization wizard’. […] Then, CaptureSelect™ Biotin Anti-IgG-Fc (Human) Conjugate was bound to the neutravidin, using a 20 μg/ml dilution in running buffer (HBS-EP+, GE Healthcare).
(§2) The method itself consisted of four commands per cycle. […] Second command: sample injection for 120s followed by a 1200s long dissociation at a flow speed of 30 μl/min. Third and fourth command: regeneration by injecting Glycine-HCl pH 1.5 for 30 seconds.

[2] = target: T1, human Fc tagged human Lag3 extra …; assay: SPR (Biacore T200), huLag3-Fc captured, antibody Fab fragment as analyte, 25 °C
Protocol: as §1, §2

[3] = target: T1, human Fc tagged human Lag3 extra …; assay: SPR (Biacore T200), huLag3-Fc captured, antibody Fab fragment as analyte, 25 °C, 1:1 Langmuir fit
Protocol: as §1, §2

[4] = target: T2, biotinylated cynoPD1-ECD-Biotin (cynomolgus, UniProt B0LAJ3 25-170, biotinylated; the site and any Avi or His tag are not stated in the passages shown); assay: ELISA on coated cynoPD1-ECD-Biotin
T2 construct: also called cyPD1
T2 sequence (B0LAJ3 entry or part of it limits assumed): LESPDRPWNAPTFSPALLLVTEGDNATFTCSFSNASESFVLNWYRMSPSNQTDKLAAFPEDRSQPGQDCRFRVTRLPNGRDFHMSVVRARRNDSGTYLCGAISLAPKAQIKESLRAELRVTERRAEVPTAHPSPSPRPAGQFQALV

hu PD1-ECD [5] = target: T3, hu PD1-ECD (human, UniProt Q15116 25-170); assay: SPR (Biacore T200), antibody captured by anti-human IgG, hu PD1-ECD as analyte, 25 °C, 1:1 Langmuir fit
T3 construct: SPR analyte; also called human PD1-ECD
T3 sequence (Q15116 25-170 limits assumed): as the sequence (B0LAJ3 entry or part of it limits assumed) above, with E2D, A10P, L19V, A35T, R75Q, A144T counted along it
Protocol: Therefore, an anti-human IgG was immobilized by amine coupling to the surface of a (Biacore) CM5 sensor chip. […] The sensor chip surface was regenerated after each analysis cycle. The equilibrium constant and kinetic rate constants were finally gained by fitting the data to a 1:1 langmuir interaction model.
(§3) The samples were injected for 20 seconds with a concentration of 10 nM and bound to the second flow cell.
Finally the double referenced data was fitted to a 1:1 Langmuir interaction model with the Biacore T200 Evaluation Software.

hu PD1-ECD [6] = target: T3, hu PD1-ECD; assay: SPR; row head 'Affinity KD 37° C.'; second of two numbers, equal to the 25 °C value of Table 3
[7] = target: T2, biotinylated cynoPD1-ECD-Biotin; assay: ELISA on cyno PD1; row head 'cynomolgus crossreactivity (EC50 [nm])'
[8] = target: T4, biotinylated PD1-ECD-AviHis (human, UniProt Q15116 25-170, biotinylated); assay: ELISA on coated biotinylated PD1-ECD-AviHis
T4 construct: also called huPD1; hu PD1; not shown: Avi-His tag
T4 sequence (Q15116 25-170): as the sequence (B0LAJ3 entry or part of it limits assumed) above, with E2D, A10P, L19V, A35T, R75Q, A144T counted along it

hu PD1-ECD [9] = target: T3, hu PD1-ECD; assay: SPR; row head 'Affinity KD 37° C.'; first of two numbers
Protocol: as §3

[10] = target: T5, full-length human PD1 on cells (human, UniProt Q15116 25-288); assay: cell ELISA on CHO-K1 cells expressing full-length human PD1
T5 construct: also called CHO-PD1
T5 sequence (Q15116 25-288 limits assumed): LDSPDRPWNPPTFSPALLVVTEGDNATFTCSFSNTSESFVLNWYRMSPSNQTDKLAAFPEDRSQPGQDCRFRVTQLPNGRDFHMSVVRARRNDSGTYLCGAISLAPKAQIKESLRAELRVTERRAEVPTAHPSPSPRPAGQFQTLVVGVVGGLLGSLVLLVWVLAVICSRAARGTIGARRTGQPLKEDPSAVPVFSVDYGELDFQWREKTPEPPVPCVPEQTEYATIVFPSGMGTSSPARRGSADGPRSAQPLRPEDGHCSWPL
Protocol: (to avoid internalization). After washing carefully (1×90 μl/well PBST) cells were fixed by adding 30 μl/well 0.05% Glutaraldehyde (Sigma, Cat.No: G5882, 25%) diluted in 1×PBS-buffer and incubated for 10 min at RT. After washing (3×90 μl/well PBST) 25 μl/well secondary antibody was added for detection: goat-anti-human H+L-POD (JIR, JIR109-036-088)/Sheep-anti-mouse-POD (GE NA9310) followed by 1h incubation at RT on shaker. After washing (3×90 μl/well PBST) 25 μl/well TMB substrate solution (Roche 11835033001) was added and incubated until OD 1.0-2.0. Plates were measured at 370/492 nm.

[11] = target: T4, biotinylated PD1-ECD-AviHis; assay: ELISA (hu PD1, as described above)
Protocol: After washing (3×90 μl/well with PBST-buffer) 25 μl/well goat-anti-human H+L-POD (JIR, JIR109-036-088)/Sheep-anti-mouse-POD (GE Healthcare; NA9310) was added in 1:2000/1:1000 dilution and incubated at RT for 1 h on shaker. After washing (3×90 μl/well with PBST-buffer) 25 μl/well TMB substrate (Roche Catalogue No. 11835033001) was added and incubated until OD 2-3. Measurement took place at 370/492 nm.

biotinylated-Lag3 [12] = target: T6, biotinylated-Lag3 (UniProt P18627 23-450, limits assumed, biotinylated); assay: ELISA, inhibition of biotinylated-Lag3 binding to MHC-II on A375 cells (competitor MHC-II); second of two numbers
T6 construct: Probably a human LAG3 ECD construct; also called Lag3 (MHCII/ELISA)
T6 sequence (looked up): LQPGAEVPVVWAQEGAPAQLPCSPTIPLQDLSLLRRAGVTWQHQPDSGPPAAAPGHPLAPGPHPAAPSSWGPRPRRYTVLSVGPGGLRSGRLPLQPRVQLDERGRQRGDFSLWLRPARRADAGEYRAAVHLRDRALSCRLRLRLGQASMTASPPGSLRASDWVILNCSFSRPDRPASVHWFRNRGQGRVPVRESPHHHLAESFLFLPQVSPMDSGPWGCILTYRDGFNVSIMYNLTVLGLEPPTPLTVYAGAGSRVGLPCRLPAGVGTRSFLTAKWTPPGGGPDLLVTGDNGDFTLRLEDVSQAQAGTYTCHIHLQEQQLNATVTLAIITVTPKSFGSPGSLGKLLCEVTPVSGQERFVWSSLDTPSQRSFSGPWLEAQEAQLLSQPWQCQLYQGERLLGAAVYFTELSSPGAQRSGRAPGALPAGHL

biotinylated-Lag3 [13] = target: T6, biotinylated-Lag3; assay: ELISA, inhibition of biotinylated-Lag3 binding to MHC-II on A375 cells (competitor MHC-II); first of two numbers
[14] = target: T1, human Fc tagged human Lag3 extra …; assay: FACS, inhibition of biotinylated Lag3:Fc binding to MHC-II on A375 cells (competitor MHC-II); antibody 10 µg/ml
Protocol: This analysis was studied in a FACS competition experiment: A375 cells (ATCC, #CRL-1619) were cultured for 2-3 passages in EM Eagle's medium supplemented with EBSS (PAN, cat.no. #P04-00509), 10% FBS, 2 mM L-Glutamin, 1×NEAA and 1× Sodium Pyruvate. All antibodies, were diluted in FACS buffer to a final concentration of 20 μg/ml in 25 μl (in 96well U-bottom plates). […] A375 cells were washed with PBS and adjusted to 3×10⁶ cells/ml in PBS. 100 μl were seeded per well in a 96well V-bottom plate. Plates were centrifuged and supernatant was removed. […] After this, cells were washed with 200 μl FACS buffer. […] After staining, cells were again washed and then transferred in 150 μl FACS buffer (PBS/2% FBS) to a U-bottom plate and analyzed on a FACS Canto-II using an HTS module.
All antibodies were used at 10 μg/ml final concentration.

[15] = target: T4, biotinylated PD1-ECD-AviHis; assay: ligand replacing ELISA; row head 'IC50 PD-L1, 2 [nM]' (ligand not told apart); competing ligand printed only as 'PD-L1, 2'
hu PD1-ECD [16] = target: T3, hu PD1-ECD; assay: SPR; row head 'Affinity KD 37° C.'; first of two numbers; first of the two numbers in the cell, row head 37° C.
hu PD1-ECD [17] = target: T3, hu PD1-ECD; assay: SPR; row head 'Affinity KD 37° C.'; second of two numbers, equal to the 25 °C value of Table 3; second of the two numbers in the cell; only 37° C. is printed, split not explained
Protocol: as §3

Kd [3]: 0.0282 nM
koff [2]: 0.000221 s⁻¹
B2: aLAG3(0416) Fab fragment (Fab, V domains shown)
VH: EVQLVESGGGLVQPGGSLRLACAASGFTFSDYAMSWVRQAPGKGLEWVSGIDNSGYYTYYTDSVKGRFTISRDDVKNTLYLQMNSLRAEDTAVYLCTKTHSGLIVNDAFDIWGQGTMVTVSS
VL: DIQLTQSPSSLSASVGDRVTITCRASQSISSYLNWYQQKPGKAPKLLIYDASSLESGVPSRFSGSGSGTDATLTISSLQPEDFATYYCQQSYSTPLTFGGGTKVEIK

IC50 [15]: 1.35 nM
Kd (hu PD1-ECD [16]): 2 nM
Kd (hu PD1-ECD [5]): 0.8 nM
koff (hu PD1-ECD [5]): 0.000307 s⁻¹
kon (hu PD1-ECD [5]): 386000 M⁻¹ s⁻¹
Kd (hu PD1-ECD [17]): 0.8 nM
EC50 [11]: 0.2 nM
B5: chimeric PD1-0103 (antibody, human IgG1, V domains shown)
VH: EVILVESGGGLVKPGGSLKLSCAASGFSFSSYTMSWVRQTPEKRLDWVATISGGGRDIYYPDSVKGRFTISRDNAKNTLYLEMSSLMSEDTALYYCVLLTGRVYFALDSWGQGTSVTVSS
VL: KIVLTQSPASLPVSLGQRATISCRASESVDTSDNSFIHWYQQRPGQSPKLLIYRSSTLESGVPARFSGSGSRTDFTLTIDPVEADDVATYYCQQNYDVPWTFGGGTKLEIK
notes: also called chiPD1-0103

Second part, the binder before the results:

B1: aLAG3(0414) Fab fragment (Fab, V domains shown)
VH: EVQLLESGGGLVQPGGSLRLSCAASGFIFDDYTMNWVRQAPGKGLEWVAVISWDGGGTYYTDSVKGRFTISRDDFKNTLYLQMNSLRAEDTAVYYCAKGLTDTTLYGSDYWGQGTLVTVSS
VL: B2 VL with L4M, D50A, S53T, E55Q, A71F, S91T, T94S
Kd [1]: 0.463 nM
koff [2]: 0.000195 s⁻¹

B3: PD1-0103-0314 (antibody, human IgG1, V domains shown)
VH: EVQLLESGGGLVQPGGSLRLSCAASGFSFSSYTMSWVRQAPGKGLEWVATISGGGRDIYYPDSVKGRFTISRDNSKNTLYLQMNSLRAEDTAVYYCVLLTGRVYFALDSWGQGTLVTVSS
VL: EIVLTQSPATLSLSPGERATLSCRASESVDTSDNSFIHWYQQKPGQSPRLLIYRSSTLESGIPARFSGSGSGTDFTLTISSLEPEDFAVYYCQQNYDVPWTFGQGTKVEIKR
notes: Humanized; also called PD1-103-0314; PD-0103-0314
EC50 [4]: 8.3 ng/mL
Kd (hu PD1-ECD [5]): 1.5 nM
koff (hu PD1-ECD [5]): 0.000279 s⁻¹
kon (hu PD1-ECD [5]): 187000 M⁻¹ s⁻¹
Kd (hu PD1-ECD [6]): 1.5 nM
EC50 [7]: 0.05 nM
EC50 [8]: 11 ng/mL
Kd (hu PD1-ECD [9]): 1.6 nM
EC50 [10]: 7.7 ng/mL
EC50 [11]: 0.07 nM

B4: Reference MDX26H10 (antibody, V domains shown)
VH: QVQLVESGGGVVQPGRSLRLSCAASGFTFSSYGMHWVRQAPGKGLEWVAVIWYDGSNKYYADSVKGRFTISRDNSKNTLYLQMNSLRAEDTAVYYCAREWAVASWDYGMDVWGQGTTVTVSS
VL: not shown
notes: also called MDX-26H10 (26H10); aLAG3(MDX26H10)
IC50 (biotinylated-Lag3 [12]): 0.6 nM
IC50 (biotinylated-Lag3 [13]): 0.9 nM
% Inhibition [14]: 71.7%
